From US20190263932A1 (Eli Lilly, published 2019)
Positions count from the first letter of the chain named.

What was measured:
[1] = molecular target: T1, recombinant human TrkA protein (human, UniProt P04629-2 34-407, limits assumed); assay: NGF-blocking ELISA on coated human TrkA, 100 nM btNGF; mAb 0.16 nM
Experimental: (§1) Each row of a 96-well high-binding clear-bottom microtiter plate (Microlon, #655061) was coated overnight at 4° C. with 100 μL/well of recombinant human TrkA protein, diluted to 2 μg/mL in phosphate buffered saline, pH 7.2 (PBS). The next day, the coating solution was removed, and the plate was blocked with 150 μL of Casein-PBS (Thermo Scientific, #37528) for 1 hour at 25° C. with gentle shaking. The plate was then washed three times with PBS supplemented with 0.05% Tween20 (PBST). A two-fold dilution series of exemplified antibodies, along with IgG4 and IgG1 isotype control antibodies, was generated starting at 20 nM in Casein-PBS. 100 μL of the each dilution series sample was added to a well for 30 min at 37° C. with gentle shaking. The plate was then washed three times with PBST. […] The plate was then washed three times with PBST. A 1:3500 dilution of a 1 mg/mL stock solution of streptavidin-HRP (Thermo Scientific, #21130) in Casein-PBS was prepared and […] was added to each well for 20 min at 37° C. with gentle shaking. The plate was washed three times with PBST. […] The reaction was stopped by addition of 100 μL of 1M H₃PO₄ to each well. The absorbance at 450 nm (Abs450) was measured using a SpectraMax 340PC plate reader (Molecular Devices).

[2] = molecular target: T2, Mouse TrkA Extracellular Domain (33-417 with 396-401 deletion) (mouse, UniProt Q3UFB7 34-417); assay: SPR, mAb captured on Protein A chip, 37 C
T2 construct: SPR analyte
Experimental: (§2) The binding kinetics and affinity of exemplified antibodies to human, cynomolgus monkey, rat, mouse, and rabbit TrkA are determined as described below using a surface plasmon resonance assay on a BIACORE™ 8K instrument (GE Healthcare). Two different isoforms of human TrkA (isoform 1 and isoform 2) are evaluated along with human TrkB and human TrkC. […] All FC2 on all eight channels are set to capture approximately 89 response units (RU) of antibody at a flow rate of 10 μL/min. The antibody sample is prepared at 1 μg/mL by dilution into the running buffer. […] Before the analysis cycle, the chip is regenerated with 3 injections of glycine (pH ˜1.5) at 100 μL/min for a contact time of 15 seconds on FC1 and FC2 in order to clean the surface of the chip.

[3] = molecular target: T3, Cynomolgus monkey TrkA Extracellular Domain (59-434) (cynomolgus monkey, UniProt P04629 35-414 (human entry)); assay: SPR, mAb captured on Protein A chip, 37 C
T3 construct: SPR analyte
T3 chain: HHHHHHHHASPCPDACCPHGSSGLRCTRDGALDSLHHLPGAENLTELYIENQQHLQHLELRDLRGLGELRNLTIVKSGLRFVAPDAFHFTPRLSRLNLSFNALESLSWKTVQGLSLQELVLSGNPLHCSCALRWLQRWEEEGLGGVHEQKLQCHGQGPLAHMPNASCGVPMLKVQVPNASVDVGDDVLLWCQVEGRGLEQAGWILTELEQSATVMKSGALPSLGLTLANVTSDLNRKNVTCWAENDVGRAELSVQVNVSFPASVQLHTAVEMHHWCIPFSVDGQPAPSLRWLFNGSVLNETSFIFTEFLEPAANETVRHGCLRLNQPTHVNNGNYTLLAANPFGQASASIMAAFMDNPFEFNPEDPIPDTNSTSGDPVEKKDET
Experimental: as §2

[4] = molecular target: T4, Human TrkA Extracellular Domain Isoform 1 (33-414) (human, UniProt P04629 33-414); assay: SPR, mAb captured on Protein A chip, 37 C
T4 construct: SPR analyte; also called Human TrkA Isoform 1
Experimental: as §2

[5] = molecular target: T5, Rat TrkA Extracellular Domain (33-411) (rat, UniProt P35739 33-417); assay: SPR, mAb captured on Protein A chip, 37 C
T5 construct: SPR analyte
Experimental: as §2

[6] = molecular target: T1, recombinant human TrkA protein; assay: NGF-blocking ELISA on coated human TrkA, 100 nM btNGF
Experimental: as §1

[7] = molecular target: T1, recombinant human TrkA protein; assay: NGF-blocking ELISA on coated human TrkA, 100 nM btNGF; mAb 0.04 nM
Experimental: as §1

[8] = molecular target: TrkA on rat NEUROSCREEN-1 cells (pheochromocytoma PC12 subclone) (rat, UniProt P35739 33-799); assay: cell-based or functional assay
[9] = molecular target: T1, recombinant human TrkA protein; assay: NGF-blocking ELISA on coated human TrkA, 100 nM btNGF; mAb 10 nM
Experimental: as §1

[10] = molecular target: T1, recombinant human TrkA protein; assay: NGF-blocking ELISA on coated human TrkA, 100 nM btNGF; mAb 0.63 nM
Experimental: as §1

[11] = molecular target: T1, recombinant human TrkA protein; assay: NGF-blocking ELISA on coated human TrkA, 100 nM btNGF; mAb 1.25 nM
Experimental: as §1

TrkA on rat NEUROSCREEN-1 cells (pheochromocytoma PC12 subclone), sequence (P35739 33-799): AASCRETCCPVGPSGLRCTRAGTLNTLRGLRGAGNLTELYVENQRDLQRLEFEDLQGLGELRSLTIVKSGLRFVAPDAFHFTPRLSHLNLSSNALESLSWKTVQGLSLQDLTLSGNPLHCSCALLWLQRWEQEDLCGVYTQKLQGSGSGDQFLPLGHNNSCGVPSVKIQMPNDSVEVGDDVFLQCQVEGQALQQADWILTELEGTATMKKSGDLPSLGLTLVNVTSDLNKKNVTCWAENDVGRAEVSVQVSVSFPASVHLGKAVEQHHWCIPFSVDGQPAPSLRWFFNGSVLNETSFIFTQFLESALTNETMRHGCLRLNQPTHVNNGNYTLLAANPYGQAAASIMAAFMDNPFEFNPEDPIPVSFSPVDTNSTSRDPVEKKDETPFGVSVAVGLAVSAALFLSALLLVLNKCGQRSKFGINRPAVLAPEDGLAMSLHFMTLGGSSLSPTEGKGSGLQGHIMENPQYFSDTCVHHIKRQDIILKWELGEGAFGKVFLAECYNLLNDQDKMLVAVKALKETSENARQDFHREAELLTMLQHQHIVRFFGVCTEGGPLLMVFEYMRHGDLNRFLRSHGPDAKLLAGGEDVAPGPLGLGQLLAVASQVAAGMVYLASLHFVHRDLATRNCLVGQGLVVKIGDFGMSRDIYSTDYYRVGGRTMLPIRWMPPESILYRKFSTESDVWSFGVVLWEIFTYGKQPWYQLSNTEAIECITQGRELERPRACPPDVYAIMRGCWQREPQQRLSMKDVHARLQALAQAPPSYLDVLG
T5 sequence (P35739 other isoform, or with tags, fused parts or gaps): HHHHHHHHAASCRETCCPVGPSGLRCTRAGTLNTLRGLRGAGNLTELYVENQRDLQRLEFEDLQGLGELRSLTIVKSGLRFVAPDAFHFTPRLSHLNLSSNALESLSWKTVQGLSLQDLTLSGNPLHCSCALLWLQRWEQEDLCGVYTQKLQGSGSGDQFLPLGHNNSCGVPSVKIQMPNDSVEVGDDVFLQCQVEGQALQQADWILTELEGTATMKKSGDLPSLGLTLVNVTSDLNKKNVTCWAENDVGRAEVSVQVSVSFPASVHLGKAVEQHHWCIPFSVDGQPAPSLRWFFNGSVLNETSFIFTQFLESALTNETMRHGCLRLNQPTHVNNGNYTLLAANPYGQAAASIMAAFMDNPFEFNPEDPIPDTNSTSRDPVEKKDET
T4 sequence (P04629 other isoform, or with tags, fused parts or gaps): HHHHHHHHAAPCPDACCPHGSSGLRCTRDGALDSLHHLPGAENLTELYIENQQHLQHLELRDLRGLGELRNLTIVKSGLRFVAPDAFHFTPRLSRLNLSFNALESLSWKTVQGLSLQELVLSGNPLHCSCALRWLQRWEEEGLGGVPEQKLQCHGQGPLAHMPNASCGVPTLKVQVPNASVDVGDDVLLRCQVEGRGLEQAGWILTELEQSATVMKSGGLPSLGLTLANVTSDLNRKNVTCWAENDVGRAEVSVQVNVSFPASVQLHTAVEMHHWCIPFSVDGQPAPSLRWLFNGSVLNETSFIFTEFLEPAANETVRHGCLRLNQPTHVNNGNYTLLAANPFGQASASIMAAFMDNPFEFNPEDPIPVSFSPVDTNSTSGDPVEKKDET
T1 sequence (P04629 other isoform, or with tags, fused parts or gaps limits assumed): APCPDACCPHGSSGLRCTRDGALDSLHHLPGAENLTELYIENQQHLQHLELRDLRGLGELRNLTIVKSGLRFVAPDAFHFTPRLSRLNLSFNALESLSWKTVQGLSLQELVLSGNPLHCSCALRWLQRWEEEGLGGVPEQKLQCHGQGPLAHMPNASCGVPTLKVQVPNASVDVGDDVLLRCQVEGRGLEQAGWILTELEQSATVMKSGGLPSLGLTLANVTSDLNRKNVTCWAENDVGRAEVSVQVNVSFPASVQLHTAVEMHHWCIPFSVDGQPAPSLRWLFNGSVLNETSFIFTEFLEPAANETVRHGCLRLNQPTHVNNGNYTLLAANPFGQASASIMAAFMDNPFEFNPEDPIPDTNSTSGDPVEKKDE
T2 sequence (Q3UFB7 other isoform, or with tags, fused parts or gaps limits assumed): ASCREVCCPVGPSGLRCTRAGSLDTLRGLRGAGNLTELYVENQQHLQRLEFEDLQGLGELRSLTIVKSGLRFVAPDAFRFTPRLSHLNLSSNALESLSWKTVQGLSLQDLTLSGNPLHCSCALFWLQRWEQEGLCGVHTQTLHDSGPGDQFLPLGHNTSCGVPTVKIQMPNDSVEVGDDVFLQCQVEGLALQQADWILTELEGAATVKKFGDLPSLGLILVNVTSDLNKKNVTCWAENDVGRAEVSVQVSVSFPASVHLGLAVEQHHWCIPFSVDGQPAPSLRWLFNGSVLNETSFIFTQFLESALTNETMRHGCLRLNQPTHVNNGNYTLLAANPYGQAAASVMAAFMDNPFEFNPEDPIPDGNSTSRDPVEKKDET

B1: mAb A (antibody, human IgG4 S228P, kappa, F234A L235A, V domains shown)
VH: EVQLVESGGGLVKPGGSLRLSCAASGFTFSGVSINWVRQAPGKGLEWVSSETTSSGTIYYADSVKGRFTISRDNAKNSLYLQMNSLRAEDTAVYYCARSYYYGMDVWGQGTTVTVSS
VL: DIVMTQTPLSSPVTLGQPASISCRSSQSLVHRNGNTYLSWLQQRPGQPPRLLIYKISNRFSGVPDRFSGSGAGTDFTLKISRVEAEDVGVYYCMQARQFPLTFGGGTKVEIKR
notes: Human IgG4PAA/Kappa
With B1 as the binder, how does the “Absorbance 450 nm” value [1] read?
The value was 0.87.

And the Kd [2]?
The Kd was 6.1 nM.

And the koff [2]?
The koff was 0.00069 s⁻¹.

And the kon [2]?
Its kon is 110000 M⁻¹ s⁻¹.

And the Kd [3]?
The Kd was 3.6 nM.

What about the koff [3] of the same binder?
The koff was 0.00069 s⁻¹.

What about the kon [3] of the same binder?
The kon was 190000 M⁻¹ s⁻¹.

And the Kd [4]?
Its Kd is 3.9 nM.

And the koff [4]?
The koff was 0.00069 s⁻¹.

What about the kon [4] of the same binder?
The kon was 180000 M⁻¹ s⁻¹.

And the Kd [5]?
The Kd was 5.1 nM.

And the koff [5]?
The koff was 0.00069 s⁻¹.

What about the kon [5] of the same binder?
The kon was 140000 M⁻¹ s⁻¹.

And the IC50 [6]?
Its IC50 is 0.34 nM.

And the “Absorbance 450 nm” value [7]?
Its value is 1.09.

What about the “% Max Stimulation of neurite outgrowth” value [8] of the same binder?
The value was 7%.

What about the “IC50, inhibition of NGF-induced neurite outgrowth” value (from here on “IC50, inhibition”) [8] of the same binder?
Its value is 0.1 nM.

And the “Absorbance 450 nm” value [9]?
Its value is 0.2.

What about the “Absorbance 450 nm” value [10] of the same binder?
Its value is 0.38.

And the “Absorbance 450 nm” value [11]?
Its value is 0.26.

B2: mAb B (antibody, human IgG4 S228P, kappa, F234A L235A)
heavy: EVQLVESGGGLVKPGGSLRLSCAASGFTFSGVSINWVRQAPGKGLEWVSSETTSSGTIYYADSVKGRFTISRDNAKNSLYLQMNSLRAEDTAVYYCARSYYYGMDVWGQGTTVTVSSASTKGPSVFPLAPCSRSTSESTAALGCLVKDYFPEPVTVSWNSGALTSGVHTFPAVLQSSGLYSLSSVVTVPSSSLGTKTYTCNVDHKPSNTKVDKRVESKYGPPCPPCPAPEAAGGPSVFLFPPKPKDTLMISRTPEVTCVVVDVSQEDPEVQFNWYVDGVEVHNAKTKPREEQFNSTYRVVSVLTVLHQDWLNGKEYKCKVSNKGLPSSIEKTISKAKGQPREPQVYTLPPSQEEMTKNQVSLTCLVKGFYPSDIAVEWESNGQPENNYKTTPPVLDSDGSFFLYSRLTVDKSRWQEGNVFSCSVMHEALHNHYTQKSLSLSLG
light: DIVMTQTPLSSPVTLGQPASISCRSSQSLVHRAGNTYLSWLQQRPGQPPRLLIYKISNRFSGVPDRFSGSGAGTDFTLKISRVEAEDVGVYYCMQARQFPLTFGGGTKVEIKRTVAAPSVFIFPPSDEQLKSGTASVVCLLNNFYPREAKVQWKVDNALQSGNSQESVTEQDSKDSTYSLSSTLTLSKADYEKHKVYACEVTHQGLSSPVTKSFNRGEC
notes: Human IgG4PAA/Kappa
For B2, which “Absorbance 450 nm” value [1] is on record?
The value was 0.7.

And the Kd [2]?
The Kd was 10.5 nM.

And the koff [2]?
Its koff is 0.0012 s⁻¹.

And the kon [2]?
Its kon is 120000 M⁻¹ s⁻¹.

What about the Kd [3] of the same binder?
The Kd was 6.9 nM.

What about the koff [3] of the same binder?
The koff was 0.0013 s⁻¹.

What about the kon [3] of the same binder?
Its kon is 190000 M⁻¹ s⁻¹.

And the Kd [4]?
Its Kd is 6.7 nM.

And the koff [4]?
The koff was 0.0013 s⁻¹.

What about the kon [4] of the same binder?
The kon was 190000 M⁻¹ s⁻¹.

What about the Kd [5] of the same binder?
The Kd was 9.1 nM.

What about the koff [5] of the same binder?
Its koff is 0.0012 s⁻¹.

And the kon [5]?
The kon was 130000 M⁻¹ s⁻¹.

And the IC50 [6]?
The IC50 was 0.27 nM.

And the “Absorbance 450 nm” value [7]?
Its value is 0.87.

What about the “% Max Stimulation of neurite outgrowth” value [8] of the same binder?
The value was 10%.

What about the “IC50, inhibition” value [8] of the same binder?
Its value is 0.07 nM.

What about the “Absorbance 450 nm” value [9] of the same binder?
Its value is 0.14.

And the “Absorbance 450 nm” value [10]?
The value was 0.25.

And the “Absorbance 450 nm” value [11]?
The value was 0.17.

B3: mAb C (antibody, human IgG4 S228P, kappa, F234A L235A)
heavy: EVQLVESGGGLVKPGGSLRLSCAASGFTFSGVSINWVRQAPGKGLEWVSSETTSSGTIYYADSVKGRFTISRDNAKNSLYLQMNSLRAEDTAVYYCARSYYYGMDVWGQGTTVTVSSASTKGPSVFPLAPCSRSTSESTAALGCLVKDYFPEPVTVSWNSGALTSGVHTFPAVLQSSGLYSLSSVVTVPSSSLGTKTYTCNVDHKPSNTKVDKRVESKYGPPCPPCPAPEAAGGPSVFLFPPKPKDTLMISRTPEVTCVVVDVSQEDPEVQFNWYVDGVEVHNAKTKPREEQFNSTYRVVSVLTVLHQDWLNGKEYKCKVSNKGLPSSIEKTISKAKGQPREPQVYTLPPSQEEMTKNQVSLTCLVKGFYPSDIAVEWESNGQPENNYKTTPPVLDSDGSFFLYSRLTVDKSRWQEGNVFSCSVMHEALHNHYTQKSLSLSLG
light: B2 light with A33Q
notes: Human IgG4PAA/Kappa
B3 was tested. Which “Absorbance 450 nm” value [1] did it give?
The value was 0.77.

And the Kd [2]?
The Kd was 10.2 nM.

What about the koff [2] of the same binder?
The koff was 0.0012 s⁻¹.

And the kon [2]?
The kon was 120000 M⁻¹ s⁻¹.

What about the Kd [3] of the same binder?
The Kd was 6.6 nM.

And the koff [3]?
Its koff is 0.0013 s⁻¹.

And the kon [3]?
Its kon is 200000 M⁻¹ s⁻¹.

And the Kd [4]?
The Kd was 6.7 nM.

And the koff [4]?
The koff was 0.0013 s⁻¹.

What about the kon [4] of the same binder?
Its kon is 200000 M⁻¹ s⁻¹.

And the Kd [5]?
Its Kd is 9 nM.

What about the koff [5] of the same binder?
Its koff is 0.0012 s⁻¹.

And the kon [5]?
The kon was 130000 M⁻¹ s⁻¹.

What about the IC50 [6] of the same binder?
The IC50 was 0.28 nM.

And the “Absorbance 450 nm” value [7]?
Its value is 1.03.

And the “% Max Stimulation of neurite outgrowth” value [8]?
Its value is 7%.

And the “IC50, inhibition” value [8]?
Its value is 0.06 nM.

And the “Absorbance 450 nm” value [9]?
The value was 0.15.

What about the “Absorbance 450 nm” value [10] of the same binder?
The value was 0.3.

And the “Absorbance 450 nm” value [11]?
Its value is 0.16.
